The target of one assay is T1, mDPEP3 (limits assumed).
T1 construct: also called mouse DPEP3-His; mouse DPEP3 ECD with histidine tag
T1 single chain: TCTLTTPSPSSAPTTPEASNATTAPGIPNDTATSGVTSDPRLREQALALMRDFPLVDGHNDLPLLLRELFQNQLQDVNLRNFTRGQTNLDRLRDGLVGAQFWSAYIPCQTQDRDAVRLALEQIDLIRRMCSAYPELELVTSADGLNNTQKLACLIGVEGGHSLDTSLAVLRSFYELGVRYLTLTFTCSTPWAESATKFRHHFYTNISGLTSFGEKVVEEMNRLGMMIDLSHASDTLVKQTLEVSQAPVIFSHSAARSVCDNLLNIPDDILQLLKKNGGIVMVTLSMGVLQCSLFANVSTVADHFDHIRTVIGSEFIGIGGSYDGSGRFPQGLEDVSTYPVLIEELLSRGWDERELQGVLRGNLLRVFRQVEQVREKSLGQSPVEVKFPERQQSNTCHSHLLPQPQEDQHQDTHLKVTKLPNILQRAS
As to the kind of experiment: ELISA, coated antigen. As to the method: (§1) The anti-DPEP3 antibodies were screened by ELISA for cross-reactivity with mouse, rat and cynomolgus DPEP3 and for cross reactivity to hDPEP2, the closest DPEP3 family member. ELISA was conducted as follows. Plates were coated with purified mouse, rat or cynomolgus DPEP3-His or hDPEP2-His at 0.3 μg/mL in 0.2 M carbonate-bicarbonate buffer, pH 9.4 overnight at 4° C. The protein solution was removed and the wells were blocked with 1% (w/v) BSA in PBS (PBSA), 100 μL/well for 1 hour at 37° C. Anti-DPEP3 antibody or a mouse isotype control antibody was then added at 1 μg/mL in 50 μL PBSA for 1 hour at room temperature. After washing with water, 50 μL/well HRP-labeled goat anti-mouse IgG antibody diluted 1:10,000 in PBSA was added for 30 min at room temperature. The plates were washed and developed by the addition of 40 μL/well of the TMB substrate solution (Thermo Scientific) at room temperature. An equal volume of 0.2 M H₂SO₄ was added to stop substrate development. The samples were then analyzed by spectrophotometer at OD 450. […] The cross reactivity results for exemplary DPEP3-specific antibodies can be seen in FIG. 4.
In general terms: ELISA stands for enzyme-linked immunosorbent assay.

For assay [1], the target named is T2, rat DPEP3 ECD with histidine tag (rat, UniProt Q5U2X4 36-459, limits assumed).
T2 construct: also called rDPEP3-His; ratDPEP3-His; not shown: histidine tag
T2 sequence: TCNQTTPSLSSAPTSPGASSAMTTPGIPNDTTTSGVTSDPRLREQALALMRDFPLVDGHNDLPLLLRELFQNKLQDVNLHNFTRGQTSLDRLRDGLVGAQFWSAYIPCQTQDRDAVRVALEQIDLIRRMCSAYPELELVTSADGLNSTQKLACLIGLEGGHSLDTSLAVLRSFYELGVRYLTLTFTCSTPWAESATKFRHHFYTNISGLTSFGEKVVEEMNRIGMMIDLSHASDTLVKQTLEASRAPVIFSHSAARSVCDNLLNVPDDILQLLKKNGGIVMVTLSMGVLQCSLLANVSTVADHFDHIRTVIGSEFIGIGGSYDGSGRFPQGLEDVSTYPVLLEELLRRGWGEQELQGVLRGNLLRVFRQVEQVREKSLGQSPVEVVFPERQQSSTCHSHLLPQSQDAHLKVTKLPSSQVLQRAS
Description: ELISA, coated antigen. On the procedure: as §1

The target in assay [2] is T3, hDPEP2 ECD with histidine tag (human, UniProt Q9H4A9 33-463).
T3 construct: also called hDPEP2-His; not shown: histidine tag
Description: ELISA, coated antigen. As to the method: as §1

The next assay deals with T4, hDPEP3-ECD-His (human, UniProt Q9H4B8 36-463).
T4 construct: also called hDPEP3-His; monomeric hDPEP3-His antigen; not shown: histidine tag
T4 sequence: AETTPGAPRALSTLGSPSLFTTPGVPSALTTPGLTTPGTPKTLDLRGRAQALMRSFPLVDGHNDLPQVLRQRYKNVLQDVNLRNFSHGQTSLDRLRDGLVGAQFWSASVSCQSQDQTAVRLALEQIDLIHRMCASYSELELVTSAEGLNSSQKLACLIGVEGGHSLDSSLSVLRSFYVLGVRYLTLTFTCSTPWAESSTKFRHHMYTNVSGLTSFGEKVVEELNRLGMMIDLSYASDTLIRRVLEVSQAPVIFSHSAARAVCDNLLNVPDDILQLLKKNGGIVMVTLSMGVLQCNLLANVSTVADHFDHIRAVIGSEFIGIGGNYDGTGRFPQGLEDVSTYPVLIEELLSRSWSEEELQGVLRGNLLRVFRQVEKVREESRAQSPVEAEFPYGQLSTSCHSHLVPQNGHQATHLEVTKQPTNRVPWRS
As to the kind of experiment: BLI ForteBio RED, 200 nM hDPEP3-His, estimated grade. As to the method:
The affinity of the antibodies for hDPEP3-His was qualitatively determined from kinetics curves generated with a ForteBio RED as follows. Anti-DPEP3 antibodies were immobilized onto anti-mouse Fc capture biosensors with a contact time of 3 mins. and a flow rate of 1000 rpm. The captured antibody loading from baseline was constant at 0.3-1 units. Following antibody capture and 30 second baseline, the biosensors were dipped into a 200 nM solution of hDPEP3-His for a 4 min. association phase followed by a 3 min. dissociation phase at a shaking rate of 1000 rpm. The biosensors were regenerated by dipping into 10 mM glycine, pH 1.7 following each cycle. The data was processed by subtracting a control mouse IgG surface response from the specific antibody response and data was truncated to the association and dissociation phase. The association and dissociation curves were used to qualitatively estimate the affinities of selected antibodies. […] A designation of “ND” means that the estimated KD was not determined.

“And” between values parts separate entries of the source, which are not always exact repeats. Identical values can stand only once.

T3 sequence (Q9H4A9 33-463): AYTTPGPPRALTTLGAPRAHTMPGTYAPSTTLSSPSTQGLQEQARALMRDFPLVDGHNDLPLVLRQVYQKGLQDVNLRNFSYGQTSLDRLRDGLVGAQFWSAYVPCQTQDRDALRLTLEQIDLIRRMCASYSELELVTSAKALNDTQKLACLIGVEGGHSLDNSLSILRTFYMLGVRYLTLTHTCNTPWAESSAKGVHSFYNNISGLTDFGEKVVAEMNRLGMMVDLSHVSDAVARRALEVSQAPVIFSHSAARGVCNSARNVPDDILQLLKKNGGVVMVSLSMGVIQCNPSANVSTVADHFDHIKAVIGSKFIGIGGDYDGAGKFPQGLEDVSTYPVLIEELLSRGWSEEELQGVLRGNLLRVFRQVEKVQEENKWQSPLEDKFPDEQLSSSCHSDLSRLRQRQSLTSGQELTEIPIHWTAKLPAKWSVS

B1: SC34.24 (antibody, mouse IgG1, V domains shown)
VH: QVQLQQSGPELARPGASVKLSCKASEYTFTSYAITWVKQRAGQGLEWIGEIYPGSGDTYYNEKFKGKATLTTDKSSSTAYMQLSSLTSEDSAVYFCARVHDYGSWFPYWGQGTLVTVSA
VL: DIVMSQSPSSLAVSVGEKVTMNCKSSQSLLYSRYQKNYLAWYQQKPGQSPKLLIYWASTRESGVPDRFTGSGSGTDFTLTISSVKAEDLAVYYCQQYYRYPLTFGAGTKLELK
For the molecule B1, the binding result (with mDPEP3; in assay [1]; in assay [2]) was “no binding (tested: 1 ug/mL)” throughout. In the assay with hDPEP3-ECD-His, the Kd is below 5 nM.

B2: SC34.58 mouse anti-DPEP3 antibody (antibody, V domains shown)
VH: QVQLQQSGAELARPGASVKLSCKASGYTFTSYGVNWVKQRTGQGLEWIGEIYPGRGDVYYNDNFKGKATLTTDKSSSTAYMQLSSLTSEDSAVYFCARVHDYGSWFPYWGQGTLVTVSA
VL: DIVMSQSPSSLAVSVGEKVTMSCKSSQSLLYSRNQKNYLAWYQQKPGQSPKLLIYWASTRESGVPDRFTGSGSGTDFTLTISSVKAEDLAVYYCHQHYRYPLTFGAGTKLELR
notes: Mouse hybridoma antibody
On to B2, for which the binding result (with mDPEP3; in assay [1]; in assay [2]) was “no binding (tested: 1 ug/mL)” in each case. Also, the Kd with hDPEP3-ECD-His was below 5 nM.

B3: SC34.25 (antibody, mouse IgG1, V domains shown)
VH: QVQLQQSGVELARPGASVKVSCKASGYTFTSYAISWVKQRTGQGLEWIGEIYPGSGETYYNEKFKGKATLTTDKSSSTAYMHLSSLTSEDSAVYLCGRVNDYGSWFPYWGQGTLVTVSA
VL: DIVMSQSPSSLAVSGGEKVTMSCKSSQSLLYSRYQKNYVAWYQQKPGQSPKLLIYWASTRESGVPDRFTGSGSGTDFTLTISSVKAEDLAVYYCQQYYRYPLTFGAGTKLELK
With B3, the binding result (with mDPEP3; in assay [1]; in assay [2]) was “no binding (tested: 1 ug/mL)” throughout. The Kd with hDPEP3-ECD-His was below 5 nM.

B4: SC34.89 (antibody, mouse IgG1, V domains shown)
VH: QVQLQQSGAELARPGASVKLSCKASGYTFTSYAISWVKQRTRQGLEWIGEIYPGSGDIHYSGKFKGKASLTTDKSSSTAYMQLSSLTSEDSAVYFCARVHDYGSWFPYWGQGTLVTVSA
VL: DIVMSQSPSSLGVSVGEKVTLSCKSSQSLFNKRDQKNYLAWYQQKPGQSPKLLIYWASTRESGVPDRFTGSGSGTDFILTIRSVKAEDLAVYYCHQSYRYPLTFGAGTKLELK
Consider B4, for which the binding result (with mDPEP3; in assay [1]; in assay [2]) was “no binding (tested: 1 ug/mL)” each time. Besides, the Kd with hDPEP3-ECD-His was below 5 nM.

B5: SC34.16 (antibody, mouse IgG1, V domains shown)
VH: QVQLQQSGTELARPGASVKLSCKASEYTFTSYAITWVRQRTGQGLEWIGEIYPGSGNTYYNETFKGKATLTSDKSSSTASMQLSSLTSEDSAVYFCARVHDYGSWFPYWGQGTLVTVSA
VL: DIVMSQSPSSLAVSVGEKVTMSCKSSQSLLYSRYQKNYLAWYQQKPGQSPKLLIYWSSTRESGVPDRFTGSGSGTDFTLTISSVKAEDLADYYCQQYYRYPLTFGAGTKLELK
Consider B5, for which the binding result (in the assay with mDPEP3; in assay [1]; in assay [2]) was “no binding (tested: 1 ug/mL)” throughout. Moreover, the Kd in the assay with hDPEP3-ECD-His was below 5 nM.

B6: SC34.13 (antibody, mouse IgG2a, V domains shown)
VH: QVQVQQSGAELARPGASVKLSCKASGYTFTSYAISWVKQRTGQGLEWIGEIYPGSGNTYYNGKFKGKATLTTDKSSSTAYMQLSSLTSEDSAVYFCARVDDYGSWFPYWGQGTLVTVSA
VL: DIVMSQSPSSLAVSVGEKVTLSCKSSQSLLYSRYQKNYLAWYQQKPGQSPRLVIYWASTRESGVPDRFTGSGSGTDFTLTISSVKAEDLVVYYCQQYYRYPLTFGSGTKLELK
Take B6: the binding result (with mDPEP3; in assay [1]; in assay [2]) was “no binding (tested: 1 ug/mL)” throughout. Further, the Kd in the assay with hDPEP3-ECD-His was ≥ 5 nM and ≤ 10 nM.

B7: SC34.19 (antibody, mouse IgG1, V domains shown)
VH: QVQLQQSGAELARPGASVKLSCKASGYTFTSYAITWVKQRTGQGLEWIGEIYPGSGNTFFNEKFKGRATLTTDKSSSTAYMQLSSLTSEDSAVYFCARVHDYGSWFPYWGQGTLVTVSA
VL: DIVMSQSPSALAVSVGEKITMSCKCSQSLLHSRDQKNYLAWYQQKPGQSPKLLIYWASTRESGVPDRFTGSGSGTDFTLTINTVKAEDLAVYYCQQHYRYPLTFGAGTKLELK
On to B7, for which the binding result (with mDPEP3; in assay [1]; in assay [2]) was “no binding (tested: 1 ug/mL)” throughout. Further, the dissociation constant Kd with hDPEP3-ECD-His is ≥ 5 nM and ≤ 10 nM.

B8: SC34.86 (antibody, mouse IgG1, V domains shown)
VH: QVQLQQSGAELARPGASVKLSCKASGYTFTSYTITWVKQRTGQGLEWIGEIYPGSGNTYYNEKFKGKATLTTDKSSSTAYMQLSSLTSEDSAVYFCARVHDYGSWFPYWGQGTLVTVSA
VL: DTVMSQSPSSLAVSVGEKVTLSCKSSQSLLYSRYQKNYLAWYQQKPGQSPKLLLYWASTRESGVPDRFTGSGSGTDFTLTISSVKAEDLAVYYCQQHYRYPLTFGAGTKLELK
On to B8, for which the binding result (with mDPEP3; in assay [1]; in assay [2]) was “no binding (tested: 1 ug/mL)” in each case. Further, the Kd with hDPEP3-ECD-His was below 5 nM.

B9: SC34.27 (antibody, mouse IgG1, V domains shown)
VH: QVQLQQSGAELARPGASVKLSCKASGYTFRSYGINWVKQRTGQGLEWIGEIYPGRGDVYYNENFKGKATLTTDKSSSTAYMQLSSLTSEDSAVYFCARVHDYGSWFPYWGQGTLVTVSA
VL: DIVMSQSPSSLAVSVGEKVTMSCKSSQSLLYSRNQKNYLAWYQQKPGQSPKLLIYWASTRESGVPDRFTGSGSGTDFTLTINSVKAEDLAVYYCHQYYRYPLTFGAGTKLELK
Take B9: the binding result (with mDPEP3; in assay [1]; in assay [2]) was “no binding (tested: 1 ug/mL)” in each case. The Kd with hDPEP3-ECD-His was below 5 nM.

For orientation: Kd means the free concentration of one partner at which half of the binding sites on the other are occupied at equilibrium, for simple one-to-one binding.
